“Also recorded” adds a separate entry of the source.
How the values were obtained:
[1] = test system: monocytes; test: Ca2+ mobilization in monocytes (Fura-2); format: cell-based, human
Procedure: (§1) Calcium mobilization was measured by incubating 2×10^7/ml cells in loading medium (DMEM, 10% FBS) with 5 μM Fura-2 AM (Molecular Probes, Eugene, Oreg.) for 30 min at room temperature in the dark. The dye-loaded cells were washed 3 times with loading medium and resuspended in saline buffer [138 mM NaCl, 6 mM KCl, 1 mM CaCl2, 10 mM HEPES (pH 7.4), 5 mM Glucose, 0.1% BSA] at a concentration of 1×10^6/ml. The cells were then transferred into quartz cuvettes (2 ml) which were placed in a luminescence spectrometer (LS-50B, Perkin-Elmer, Beaconsfield, England). Stimulants at different concentrations were added in a volume of 20 μl to each cuvette at the indicated time points. The ratio of fluorescence at 340 and 380 nm wavelength was calculated using a FL WinLab program (Perkin-Elmer).
Calcium mobilization was assayed by incubating 2×10^7/ml of monocytes, neutrophils, FPRL1 or FPR transfectants in loading buffer containing 138 mM NaCl, 6 mM KCl, 1 mM CaCl2, 10 mM HEPES (pH 7.4), 5 mM glucose, 0.1% BSA with 5 μM Fura-2 (Sigma) at 37° C. for 30 min. The dye-loaded cells were washed and resuspended in fresh loading buffer. The cells were then transferred into quartz cuvettes (10^6 cells in 2 ml) which were placed in a luminescence spectrometer LS50 B (Perkin-Elmer Limited, Beaconsfield, England). Stimulants at different concentrations were added in a volume of 20 μl to the cuvettes at indicated time points. The ratio of fluorescence at 340 and 380 nm wavelength was calculated using the FL WinLab program (Perkin-Elmer).

[2] = test system: CCR5; test: CCR5 serine phosphorylation in monocytes (anti-phosphoserine IP, anti-CCR5 immunoblot); format: cell-based, human; details: for MIP-1β-induced CCR5 phosphorylation after preincubation with PKC inhibitor: then MIP-1β 1 min; for serine phosphorylation of CCR5 / time of maximal CCR5 phosphorylation: human monocytes; for serine phosphorylation of CCR5: 37° C.
Procedure: Monocytes were isolated by counter-flow elutriation from the peripheral blood of normal donors (NIH Clinical Center, Transfusion Medicine Department, Bethesda, Md.) and enriched for mononuclear cells by using counter-flow elutriation. The purity of the cell preparations was examined by morphology after cytospin, and was >90%. The cells were stimulated with different concentrations of chemokines for indicated time periods at 37° C. and lysed for 20 min on ice with periodic mixing in lysis buffer (1% Triton X-100, 20 mM, Tris-HCl pH 8.0, 137 mM NaCl, 15% glycerol, 5 mM EDTA) containing phosphatase and protease inhibitors (1 mM phenylmethylsulfonyl fluoride, 5 μg/ml aprotinin, 5 μg/ml leupeptin, 1 mM sodium orthovanadate, 1 mM EGTA). Cell lysates were precleared with 30 µl of washed Protein-A sepherose beads (Pharmacia Biotech. Piscataway, N.J.), 1 μg of polyclonal anti-phospho-serine antibody (Zymed Laboratory Inc. South San Francisco, Calif.) was added to 200 μg cell lysates diluted with 2×immunoprecipitation (IP) buffer (1×buffer contains 1%Triton X-100, 10 mM Tris-HCl pH 7.4, 137 mM NaCl, 1 mM EDTA, 1 mM EGTA, 0.2 mM sodium orthovanadate, 0.2 mM PMSF, 0.5% NP-40). The reaction mixture was incubated at 4° C. overnight under constant rocking. The immune complex was captured by adding 50 μl of washed Protein-A sepharose beads (25 μl packed beads) and incubation of the reaction mixture at 4° C. for additional 2 hours. The beads were spun down (10 seconds at 14,000 rpm), the pellets were washed 3 times with ice-cold IP buffer, resuspended in 30 μl of 2×Laemmli sample buffer (126 mM Tris-HCl, 20% Glycerol, 4% SDS, 0.005% bromophenol blue with or without addition of 1% 2-mercaptoethanol, Novex, San Diego, Calif.) and boiled for 5 min to elute the immune complex. After electrophoresis on 4-12% SDS-PAGE precast gel (Novex), the proteins were transferred to Immobilon P membranes (Millipore, Bedford, Mass.). The membranes were blocked in freshly prepared PBS containing 3% dry milk 2 h, then were incubated with 1 μg/ml of polyclonal anti-CCR5 antibody (Millenium Biotechnology, Ramona, Calif.) overnight at 4° C. followed by washing 3 times with PBS containing 0.05% Tween 20. The membranes were incubated with a horse radish-peroxidase conjugated goat anti-rabbit IgG (1:5000) (Sigma, St. Louis, Mo.) in PBS containing 3% dry milk for 1 hour at room temperature with agitation. After washing 3 times with PBS-0.05% Tween 20, the membranes were incubated with Super Signal Chemiluminescent Substrate Stable Peroxide Solution (Pierce, Rockford, Ill.) for 1 min, and exposed to BIOMAX-MR film (Eastman Kodak Company, Rochester, N.Y.).
Monocytes stimulated with different concentrations of stimulants for indicated time periods at 37° C. were lysed for 20 min on ice with periodic mixing in lysis buffer [1% Triton X-100, 20 mM Tris-HCl (pH 8.0), 137 mM NaCl, 15% glycerol, 5 mM EDTA] containing phosphatase and protease inhibitors (1 mM phenylmethylsulfonyl fluoride, 5 μg/ml aprotinin, 5 μg/ml leupeptin, 1 mM sodium orthovanadate, 1 mM EGTA). Cell lysates were precleaned with 30 μl of washed Protein A Sepharose beads (15 μl packed beads) at 4° C. for 1 hour and 1 μg of polyclonal anti-phosphoserine antibody was added to 200 μg cell lysates diluted with 2×immunoprecipitation (IP) buffer [1×: 1% Triton X-100, 10 mM Tris-HCl (pH 7.4), 137 mM NaCl, 1 mM EDTA, 1 mM EGTA, 0.2 mM […], 0.2 mM PMSF, 0.5% NP-40]. The reaction mixture was incubated at 4° C. overnight under constant rocking. The immunecomplex was captured by adding 50 μl of washed Protein A sepharose beads (25 μl packed beads) and incubating the reaction mixture at 4° C. for an additional 2 hours. […]

[3] = test system: monocytes; test: Ca2+ mobilization of monocytes in response to chemokines after preincubation (heterologous desensitization); format: cell-based, human; details: staurosporine 2.5 ng/ml 30 min
Procedure: Calcium mobilization was measured by incubating monocytes (2×10^7/ml) in loading medium (DMEM, 10% FCS) with 5 μM Fura-2 AM (Molecular Probes, Eugene, Oreg.) for 30 min at room temperature in the dark. The dye-loaded cells were washed 3 times and resuspended in saline buffer (138 mM NaCl, 6 mM KCl, 1 mM CaCl2, 10 mM Hepes pH 7.4, 5 mM glucose, 0.1% BSA). The cells were then transferred into quartz cuvettes (2×10^6 cells in 2 ml) which were placed in a luminescence spectrometer (LS-50B, Perkin-Elmer, Beaconsfield, UK). Stimulants at different concentrations were added in a volume of 20 μl to each cuvette at the indicated time points. The ratio of fluorescence at 340 and 380 nm was calculated using a FL-WinLab program (Perkin Elmer). To examine the effect of fMLP, monocytes were preincubated with 10^−6 M fMLP or with medium alone for 60 min at 37° C. The cells were thoroughly washed and then were stained with Fura-2 for the calcium mobilization desensitization. The results are representative of at least three experiments performed.
as §1

[4] = target: T1, FPRL1 (Homo sapiens, UniProt P25090); format: cell-based; details: FPRL1/293 cells; 100 ng/ml, 37° C., 30 min
T1 construct: expressed in transfected cells; host or cells: HEK 293
T1 sequence (P25090 1-351): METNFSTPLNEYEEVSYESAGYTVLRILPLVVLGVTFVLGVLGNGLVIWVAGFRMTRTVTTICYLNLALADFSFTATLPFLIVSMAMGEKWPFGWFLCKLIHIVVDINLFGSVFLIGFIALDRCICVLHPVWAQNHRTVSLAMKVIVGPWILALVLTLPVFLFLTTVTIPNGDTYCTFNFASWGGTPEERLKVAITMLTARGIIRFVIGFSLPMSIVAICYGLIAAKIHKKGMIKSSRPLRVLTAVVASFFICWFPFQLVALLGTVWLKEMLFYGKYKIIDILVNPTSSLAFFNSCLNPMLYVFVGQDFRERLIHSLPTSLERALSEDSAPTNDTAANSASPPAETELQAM

[5] = target: T2, FPR (Homo sapiens, UniProt P21462); test: Migration of ETFR cells; format: cell-based; details: ETFR cells
T2 construct: H. Ali and R. Snyderman (Duke University); host or cells: RBL-2H3 rat basophilic leukemia cells
T2 sequence (P21462 1-350): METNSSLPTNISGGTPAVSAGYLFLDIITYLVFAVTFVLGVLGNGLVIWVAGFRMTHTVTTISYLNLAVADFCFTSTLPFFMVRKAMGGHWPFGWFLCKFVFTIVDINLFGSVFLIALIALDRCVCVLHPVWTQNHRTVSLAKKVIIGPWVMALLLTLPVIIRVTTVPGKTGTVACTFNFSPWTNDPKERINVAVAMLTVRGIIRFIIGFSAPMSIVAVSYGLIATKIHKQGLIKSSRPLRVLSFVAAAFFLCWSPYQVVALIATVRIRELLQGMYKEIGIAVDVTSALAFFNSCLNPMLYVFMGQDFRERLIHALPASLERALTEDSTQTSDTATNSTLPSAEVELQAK

[6] = test system: monocytes; test: Monocyte chemotaxis, 48-well micro-chemotaxis chamber; format: cell-based, human; details: 37° C., 30 min
[7] = test system: CCR5; test: Surface expression of CCR5 on monocytes by flow cytometry; format: cell-based, human; details: FITC-anti-CCR5 2D7
Procedure: The change of surface expression of CCR5 on monocytes was monitored by FACS analyses (courtesy of L. […] The cells were then washed twice with DPBS containing 2% BSA and fixed with 1% Paraformaldehyde (Sigma). The fluorescence was measured by flow cytometer (Becton Dickinson, San Jose, Calif.). Results are presented as the percentage of cells stained with anti-CCR5 antibody.

[8] = test system: CCR5; format: cell-based, human; details: HOS/CD4/CCR5 cells co-expressing FPR

| Molecule | Ca2+ mobilization [1] | serine phosphorylation of CCR5 [2] | expression of CCR5 on the cell surface [7] | time of maximal CCR5 phosphorylation [2] | also measured |
| --- | --- | --- | --- | --- | --- |
| MCP-1: chemokine | significant Ca^2+ mobilization |  |  |  |  |
| SDF-1α | significant Ca^2+ mobilization |  |  |  |  |
| CN[C@@H]1C[C@H]2O[C@@](C)([C@@H]1OC)n1c3ccccc3c3c4c(c5c6ccccc6n2c5c31)C(=O)NC4 [staurosporine] |  |  |  |  | MIP-1β-induced CCR5 phosphorylation after preincubation with PKC inhibitor ([2]; monocytes): did not affect; V3 peptide-induced CCR5 phosphorylation after pretreatment with PKC inhibitor ([2]; monocytes, staurosporine 2.5 ng/ml 30 min, then V3 peptide 1.5 μM 60 min): no longer significantly induced phosphorylation of CCR5; Ca2+ mobilization in response to RANTES or SDF-1α after PKC inhibitor followed by V3 peptide [3]: almost normal Ca^2+ mobilization |
| pertussis toxin |  |  |  |  | W peptide induced migration after pretreatment of the cells [4]: inhibited; W peptide induced migration after pretreatment of the cells [5]: inhibited; chemotaxis response to V3 peptide after preincubation of the cells ([6]; human phagocytes, 100 ng/ml): inhibited; migration in response to W peptide after pretreatment of the cells ([6]; phagocytes, 100 ng/ml toxin): completely inhibited |
| T20/DP178: synthetic peptide corresponding to a region in the C-terminus of the ectodomain of gp41 |  | significant and dose-dependent phosphorylation of CCR5 |  |  |  |
| calphostin C |  |  |  |  | MIP-1β-induced CCR5 phosphorylation after preincubation with PKC inhibitor ([2]; monocytes): little effect; fMLP-induced CCR5 phosphorylation after preincubation with PKC inhibitor ([2]; monocytes, calphostin C 50 ng/ml 2.5 h, then fMLP 10^−6 M 60 min): markedly reduced |
| MIP-1β: chemokine, CCR5 agonist (protein) APMGSDPPTACCFSYTARKLPRNFVVDYYETSSLCSQPAVVFQTKRSKQVCADPSESWVQEYVYDLELN | poor inducer of Ca^2+ flux | rapidly phosphorylated | downregulated | 1 min |  |
| RANTES: chemokine that activates multiple receptors including CCR5 (protein, UniProt P13501 24-91, looked up) C-C motif chemokine 5: SPYSSDTTPCCFAYIARPLPRAHIKEYFYTSGKCSNPAVVFVTRKNRQVCANPEKKWVREYINSLEMS | induced a transient rise in Ca^2+; also recorded: significant Ca^2+ mobilization | rapidly phosphorylated | downregulated | 1 min |  |
| MIP-1α: chemokine that activates multiple receptors including CCR5 (protein, UniProt P10147 24-92, looked up) C-C motif chemokine 3: SLAADTPTACCFSYTSRQIPQNFIADYFETSSQCSKPGVIFLTKRSRQVCADPSEEWVQKYVSDLELSA | induced a transient rise in Ca^2+ | rapidly phosphorylated | downregulated | 1 min | phosphorylation of CCR5 [8]: induced an increase in phosphorylation of CCR5 |
| SAA: serum amyloid A, recombinant, purchased from Pepro Tech (protein, UniProt P0DJI8 19-122, looked up) Serum amyloid A-1 protein: RSFFSFLGEAFDGARDMWRAYSDMREANYIGSDKYFHARGNYDAAKRGPGGAWAAEVITDARENIQRFFGHGAEDSLADQAANEWGRSGKDPNHFRPAGLPEKY |  | significant and dose-dependent phosphorylation of CCR5 |  |  |  |
